Bridges are numbered along the chain shown (N, C = ends). Where no end group is shown, it is not given here. [ ]: non-standard residue; d: D form.
Experiments:
CPI1 [1] = molecular target: T1, CPI1 (synthetic construct, thioether N-17); assay: ATPase activity inhibition assay (NADH-coupled), no LTC4
T1 chain: {CH2CO}-[dY]FWGNLHWYYEQFDSTC

CPI1 [2] = molecular target: T2, CPI1 (synthetic construct, thioether N-17); assay: ATPase activity inhibition assay (NADH-coupled), with 3.5 µM LTC4
T2 chain: {CH2CO}-[dY]FWGNLHWYYEQFDSTC

Ki (CPI1 [1]): 70 nM
Ki (CPI1 [2]): 95 nM
B1: MRP1 (bMRP1) (protein)
chain: MALRDFCSVDGSDLFWEWNVTWNTSNPDFTKCFQNTVLVWVPCSYLWVCFPFYFLYLSHHDRGYIQMTHLNKAKTALGFLLWIVCWADLFYSFWERSMGKLLAPVFLVSPTLLGITMLLATFLIQIERRRGVQSSGIMLTFWLIALLCALAILRSKIMTALKEDARVDVFRDVTFYIYFSLVLIQLVLSCFSDRSPLFSETINDPNPCPESSASFLSRITFWWITGMMVQGYRQPLESTDLWSLNKEDTSEQVVPVLVKNWKKECAKSRKQPVKIVYSSKDPAKPKGSSKVDVNEEAEALIVKCPQKERDPSLFKVLYKTFGPYFLMSFLFKAVHDLMMFAGPEILKLLINFVNDKKAPEWQGYFYTALLFISACLQTLVLHQYFHICFVSGMRIKTAVIGAVYRKALVITNAARKSSTVGEIVNLMSVDAQRFMDLATYINMIWSAPLQVILALYLLWLNLGPSVLAGVAVMVLMVPLNAVMAMKTKTYQVAHMKSKDNRIKLMNEILNGIKVLKLYAWELAFKDKVLAIRQEELKVLKKSAYLAAVGTFTWVCTPFLVALSTFAVYVTVDENNILDAQKAFVSLALFNILRFPLNILPMVISSIVQASVSLKRLRVFLSHEDLDPDSIQRRPIKDAGATNSITVKNATFTWARNDPPTLHGITFSVPEGSLVAVVGQVGCGKSSLLSALLAEMDKVEGHVTVKGSVAYVPQQAWIQNISLRENILFGRQLQERYYKAVVEACALLPDLEILPSGDRTEIGEKGVNLSGGQKQRVSLARAVYCDSDVYLLDDPLSAVDAHVGKHIFENVIGPKGLLKNKTRLLVTHAISYLPQMDVIIVMSGGKISEMGSYQELLARDGAFAEFLRTYASAEQEQGQPEDGLAGVGGPGKEVKQMENGMLVTDTAGKQMQRQLSSSSSYSRDVSQHHTSTAELRKPGPTEETWKLVEADKAQTGQVKLSVYWDYMKAIGLFISFLSIFLFLCNHVASLVSNYWLSLWTDDPIVNGTQEHTQVRLSVYGALGISQGITVFGYSMAVSIGGIFASRRLHLDLLHNVLRSPISFFERTPSGNLVNRFSKELDTVDSMIPQVIKMFMGSLFNVIGACIIILLATPMAAVIIPPLGLIYFFVQRFYVASSRQLKRLESVSRSPVYSHFNETLLGVSVIRAFEEQERFIRQSDLKVDENQKAYYPSIVANRWLAVRLECVGNCIVLFASLFAVISRHSLSAGLVGLSVSYSLQVTTYLNWLVRMSSEMETNIVAVERLKEYSETEKEAPWQIQDMAPPKDWPQVGRVEFRDYGLRYREDLDLVLKHINVTIDGGEKVGIVGRTGAGKSSLTLGLFRIKESAEGEIIIDDINIAKIGLHDLRFKITIIPQDPVLFSGSLRMNLDPFSQYSDEEVWTSLELAHLKGFVSALPDKLNHECAEGGENLSVGQRQLVCLARALLRKTKILVLDEATAAVDLETDDLIQSTIRTQFDDCTVLTIAHRLNTIMDYTRVIVLDKGEIQEWGSPSDLLQQRGLFYSMAKDSGLV
